According to patent publication US20230357429A1 (JANUX THERAPEUTICS, published 2023):
Where a chain is given by its changes, count along the chain named. Names may count otherwise. Values belong to the binder of their own block, whether it stands above or below them. Where no end group is shown, it is not given here.

What was measured:
[1] = molecular target: T1, Human TROP2 ECD (31-274 AA), biotinylated (human, UniProt P09758 31-274, biotinylated (site not stated)); assay: ELISA on immobilized TROP2
T1 construct: also called tumor-associated calcium signal transducer 2; Human TROP2-biotin
T1 sequence: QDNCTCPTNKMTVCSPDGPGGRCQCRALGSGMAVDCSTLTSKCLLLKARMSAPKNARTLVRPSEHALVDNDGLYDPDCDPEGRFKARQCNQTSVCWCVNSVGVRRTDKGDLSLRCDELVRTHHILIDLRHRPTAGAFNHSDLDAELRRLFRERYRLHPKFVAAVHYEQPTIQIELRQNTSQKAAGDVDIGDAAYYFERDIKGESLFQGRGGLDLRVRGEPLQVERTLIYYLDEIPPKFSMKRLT

[2] = molecular target: T1, Human TROP2 ECD (31-274 AA), …; assay: ELISA on immobilized TROP2; remark: listed apart in the source
[3] = molecular target: T2, Human TROP2 Full length (human, UniProt P09758 31-323); assay: cell-based or functional assay
T2 sequence: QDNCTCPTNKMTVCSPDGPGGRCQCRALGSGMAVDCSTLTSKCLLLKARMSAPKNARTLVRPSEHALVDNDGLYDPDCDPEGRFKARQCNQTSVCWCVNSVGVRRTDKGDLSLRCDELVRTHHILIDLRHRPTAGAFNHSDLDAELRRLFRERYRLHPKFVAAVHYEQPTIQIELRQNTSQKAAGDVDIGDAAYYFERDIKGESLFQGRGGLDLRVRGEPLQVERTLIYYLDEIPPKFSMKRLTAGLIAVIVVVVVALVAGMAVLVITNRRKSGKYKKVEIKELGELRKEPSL

[4] = molecular target: T1, Human TROP2 ECD (31-274 AA), …; assay: ELISA on immobilized TROP2; remark: listed apart in the source
[5] = molecular target: T3, TCE-1 (anti-CD3 scFv wt; anti-TROP2 Fab wt); assay: competition ELISA: peptide titrated and pre-incubated with a constant concentration of TCE-1, binding of TCE-1 to plate-bound biotinylated CD3 detected
T3 construct: anti-CD3 scFv fused to the N-terminus of the anti-TROP2 Fab heavy chain; also called TCE-1 (wt)

[6] = molecular target: T4, TCE-14 (anti-CD3 scFv F104A; anti-TROP2 wt); assay: competition ELISA, TCE on captured CD3
T4 construct: scFv on the Fab heavy chain; also called TCE-14 (F104A)

[7] = molecular target: T5, TCE-13 (anti-CD3 scFv N103A; anti-TROP2 wt); assay: competition ELISA, TCE on captured CD3
T5 construct: scFv on the Fab heavy chain; also called TCE-13 (N103A)

[8] = molecular target: T6, TCE-10 (anti-CD3 scFv R100A; anti-TROP2 wt); assay: competition ELISA, TCE on captured CD3
T6 construct: scFv on the Fab heavy chain; also called TCE-10 (R100A)

[9] = molecular target: T7, TCE-11 (anti-CD3 scFv H101A; anti-TROP2 wt); assay: competition ELISA, TCE on captured CD3
T7 construct: scFv on the Fab heavy chain; also called TCE-11 (H101A)

[10] = molecular target: T8, TCE-20 (anti-CD3 scFv S110A; anti-TROP2 wt); assay: competition ELISA, TCE on captured CD3
T8 construct: scFv on the Fab heavy chain; also called TCE-20 (S110A)

[11] = molecular target: T9, TCE-33 (anti-CD3 scFv F240A; anti-TROP2 wt); assay: competition ELISA, TCE on captured CD3
T9 construct: scFv on the Fab heavy chain; also called TCE-33 (F240A)

[12] = molecular target: T10, TCE-31 (anti-CD3 scFv W238A; anti-TROP2 wt); assay: competition ELISA, TCE on captured CD3
T10 construct: scFv on the Fab heavy chain; also called TCE-31 (W238A)

[13] = molecular target: T11, TCE-22 (anti-CD3 scFv W112A; anti-TROP2 wt); assay: competition ELISA, TCE on captured CD3
T11 construct: scFv on the Fab heavy chain; also called TCE-22 (W112A)

[14] = molecular target: T1, Human TROP2 ECD (31-274 AA), …; assay: ELISA, biotinylated TROP2 ECD on neutravidin plate, Fab titrated
[15] = molecular target: T1, Human TROP2 ECD (31-274 AA), …; assay: ELISA, ratio of EC50 to that of TBD-1 wt
[16] = molecular target: T1, Human TROP2 ECD (31-274 AA), …; assay: ELISA: biotinylated TROP2 captured on neutravidin plate, Fab titrated, HRP secondary antibody

EC50 [1]: 0.13 nM
B1: TCE-2 (bispecific antibody)
light: not shown
heavy: QVQLQQSGSELKKPGASVKVSCKASGYTFTNYGMNWVKQAPGQGLKWMGWINTYTGEPTYTDDFKGRFAFSLDTSVSTAYLQISSLKADDTAVYFCARGGFGSSYWYFDVWGQGSLVTVSSASTKGPSVFPLAPSSKSTSGGTAALGCLVKDYFPEPVTVSWNSGALTSGVHTFPAVLQSSGLYSLSSVVTVPSSSLGTQTYICNVNHKPSNTKVDKKVEPKSC

EC50 [1]: 24.6 nM
B2: PC-7 (bispecific antibody)
light: not shown
heavy: GGVDFCGLYHWPICYQGGGGSGGLSGRSDAGSPLGLAGSGGSQVQLQQSGSELKKPGASVKVSCKASGYTFTNYGMNWVKQAPGQGLKWMGWINTYTGEPTYTDDFKGRFAFSLDTSVSTAYLQISSLKADDTAVYFCARGGFGSSYWYFDVWGQGSLVTVSSASTKGPSVFPLAPSSKSTSGGTAALGCLVKDYFPEPVTVSWNSGALTSGVHTFPAVLQSSGLYSLSSVVTVPSSSLGTQTYICNVNHKPSNTKVDKKVEPKSC
notes: anti-TROP2 wt

EC50 [2]: 194 nM
B3: PC-9 (bispecific antibody)
light: not shown
heavy: B2 heavy with D151A
notes: anti-TROP2 D109A

B4: TCE-39 (bispecific antibody)
light: DIQLTQSPSSLSASVGDRVSITCKASQDVSIAVAWYQQKPGKAPKLLIYSASYRYTGVPDRFSGSGSGTDFTLTISSLQPEDFAVYYCQQHYITPLTFGAGTKVEIKRTVAAPSVFIFPPSDEQLKSGTASVVCLLNNFYPREAKVQWKVDNALQSGNSQESVTEQDSKDSTYSLSSTLTLSKADYEKHKVYACEVTHQGLSSPVTKSFNRGEC
heavy: EVQLVESGGGLVQPGGSLKLSCAASGFTFNKYAMNWVRQASGKGLEWVGRIRSKYNNYATYYADSVKDRFTISRDDSKNTAYLQMNSLKTEDTAVYYCVRHGNFGNSYISYWAYWGQGTLVTVSSGGGGSGGGGSGGGGSQTVVTQEPSFSVSPGGTVTLTCRSSTGAVTSGNYANWVQQTPGQAPRGLIGGTKFLAPGVPDRFSGSILGNKAALTITGAQADDESDYYCVLWYSNRWVFGGGTKLTVLGGGGSQVQLQQSGSELKKPGASVKVSCKASGYTFTNYGMNWVKQAPGQGLKWMGWINTYTGEPTYTDDFKGRFAFSLDTSVSTAYLQISSLKADDTAVYFCARGGFGSSYWYADVWGQGSLVTVSSASTKGPSVFPLAPSSKSTSGGTAALGCLVKDYFPEPVTVSWNSGALTSGVHTFPAVLQSSGLYSLSSVVTVPSSSLGTQTYICNVNHKPSNTKVDKKVEPKSC
HCT116 Cytotoxicity EC50 (pM) [3]: 73.2 pM

B5: TCE-49 (bispecific antibody)
light: B4 light
heavy: not shown
H292 Cytotoxicity EC50 (pM) [3]: 3.9 pM

EC50 [4]: 16.3 nM
B6: PC-29 (bispecific antibody)
light: GGVDFCGLYHWPICYQGGGGSGGLSGRSDAGSPLGLAGSGGSDIQLTQSPSSLSASVGDRVSITCKASQDVSIAVAWYQQKPGKAPKLLIYSASYRYTGVPDRFSGSGSGTDFTLTISSLQPEDFAVYYCQQHYITPLTFGAGTKVEIKRTVAAPSVFIFPPSDEQLKSGTASVVCLLNNFYPREAKVQWKVDNALQSGNSQESVTEQDSKDSTYSLSSTLTLSKADYEKHKVYACEVTHQGLSSPVTKSFNRGEC
heavy: not shown
notes: anti-TROP2 wt

binding result [5]: binds
IC50 [6]: 2470 nM
IC50 [7]: 10600 nM
IC50 [8]: 16100 nM
IC50 [9]: 1110 nM
IC50 [10]: 86600 nM
IC50 [11]: 3080 nM
IC50 [12]: 33800 nM
IC50 [13]: 75400 nM
B7: Peptide-74 (peptide)
peptide: ASQCLGPEWEVCPY
modifications: cysteine pairing not given here; also: biotinylated, site not given here
notes: mask peptide for the CD3 scFv

binding result [5]: binds
IC50 [6]: 240 nM
IC50 [7]: 3360 nM
IC50 [8]: 18600 nM
IC50 [9]: 2820 nM
IC50 [10]: 1320 nM
IC50 [11]: 1250 nM
IC50 [12]: 21600 nM
IC50 [13]: 38500 nM
B8: Peptide-67 (peptide)
peptide: VYCGPEFDESVGCM
modifications: cysteine pairing not given here; also: biotinylated, site not given here
notes: mask peptide for the CD3 scFv

IC50 (read off the curve) [5]: ~300 nM
IC50 [6]: 320 nM
IC50 [7]: 3960 nM
IC50 [8]: 45600 nM
IC50 [9]: 790 nM
IC50 [10]: 3650 nM
IC50 [11]: 2700 nM
IC50 [12]: 29900 nM
IC50 [13]: 40200 nM
B9: Peptide-72 (peptide)
peptide: AYCGPEFDESVGCM
modifications: cysteine pairing not given here; also: biotinylated, site not given here
notes: mask peptide for the CD3 scFv

EC50 [2]: 379 nM
B10: PC-11 (bispecific antibody)
light: not shown
heavy: GGVDFCGLYHWPICYQGGGGSSGGSAAGLLAPPGGLSGRSDAGGGGSQVQLQQSGSELKKPGASVKVSCKASGYTFTNYGMNWVKQAPGQGLKWMGWINTYTGEPTYTDDFKGRFAFSLDTSVSTAYLQISSLKADDTAVYFCARGGFGSSYWYFAVWGQGSLVTVSSASTKGPSVFPLAPSSKSTSGGTAALGCLVKDYFPEPVTVSWNSGALTSGVHTFPAVLQSSGLYSLSSVVTVPSSSLGTQTYICNVNHKPSNTKVDKKVEPKSC
notes: anti-TROP2 D109A

EC50 [14]: 801 nM
Fold shift in EC50 relative to wt [15]: 4000 fold
EC50 [16]: 801 nM
B11: TBD-18 (anti-TROP2 Fab, HC Y105A) (Fab, V domains shown)
VH: QVQLQQSGSELKKPGASVKVSCKASGYTFTNYGMNWVKQAPGQGLKWMGWINTYTGEPTYTDDFKGRFAFSLDTSVSTAYLQISSLKADDTAVYFCARGGFGSSAWYFDVWGQGSLVTVSS
VL: DIQLTQSPSSLSASVGDRVSITCKASQDVSIAVAWYQQKPGKAPKLLIYSASYRYTGVPDRFSGSGSGTDFTLTISSLQPEDFAVYYCQQHYITPLTFGAGTKVEIKR

EC50 [14]: 702 nM
EC50 [16]: 702 nM
B12: TBD-19 (anti-TROP2 Fab, HC W106A) (Fab, V domains shown)
VH: B11 VH with A105Y, W106A
VL: B11 VL

EC50 [2]: 181 nM
B13: PC-10 (bispecific antibody)
light: GGVDFCGLYHWPICYQGGGGSSGGSAAGLLAPPGGLSGRSDAGGGGSDIQLTQSPSSLSASVGDRVSITCKASQDVSIAVAWYQQKPGKAPKLLIYSASYRYTGVPDRFSGSGSGTDFTLTISSLQPEDFAVYYCQQHYITPLTFGAGTKVEIKRTVAAPSVFIFPPSDEQLKSGTASVVCLLNNFYPREAKVQWKVDNALQSGNSQESVTEQDSKDSTYSLSSTLTLSKADYEKHKVYACEVTHQGLSSPVTKSFNRGEC
heavy: not shown
notes: anti-TROP2 D109A
